Measured values reported in the supplement of paper PMC9170038.

Test system: K4 kissing-loop RNA reporter
Experiment: apparent KD of K4 kissing-loop reporter; higher = weaker reporter binding
Conditions: Eterna round: R107
Method: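 RNA-MaP round R107: designed RNA switches with theophylline, tryptophan, arginine or FMN aptamers are transcribed on-chip within common flanks. They are titrated with a labelled K4 kissing-loop RNA reporter in RNA-MaP buffer (100 mM Tris pH 7.5, 80 mM KCl, 4 mM MgCl2), without ligand or with the indicated ligand. Median apparent KD per design.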

[1] = input ligand: theophylline 20 uM
[2] = input ligand: tryptophan 2.4 mM
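Note: bound reporter read as fluorescence of individual clusters on recovered sequencing chips by microscopy, with normalized cluster intensities fitted with a binding model.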

| Sequence | apparent KD of K4 kissing-loop reporter (input ligand: FMN 200 uM) | apparent KD of K4 kissing-loop reporter (input ligand: arginine 13.2 mM) | apparent KD of K4 kissing-loop reporter (input ligand: none) | apparent KD of K4 kissing-loop reporter [1] | apparent KD of K4 kissing-loop reporter [2] |
| --- | --- | --- | --- | --- | --- |
| UGAUCAACAUCUGAUACCAGUCGCUCGAGUAAUCAACCGUGGCUAGUGAUGUUGGCUUUUGACCCUUGGCAGCAGAAUCGUGUCA [theeternabot_sameState_KL_Theo_B_20] | 134 nM | 131 nM | 112 nM | 189 nM | 120 nM |
| UGAUCUCGGCAGUGAUGUUGCAUAUGAGAAGGAGCGCACGAAAGUGCAGGUAGGUCGCUCAGCCACGACGAAAGUCGCGAGAUCU [#SwitchBubble 3 #K4Early] | 137 nM | 259 nM | 155 nM | 238 nM | 129 nM |
| UGAUUUAACUGAAGGAGCGGCAAUUGAGAAGGAAAUAUAGUGAUGUUAUAUAAGAGAGAGAGCCAGGUAGGUCGCAGAGGGAGGA [ExArgB.G] | 185 nM | 131 nM | 152 nM | 198 nM | 118 nM |
| UGCACCAGUGAUGUUGGUCGGCACCGAGAUACCAGCUGAUCUCUUAGCCCUUGGCAGCUCUUUAUUCGCGUUAUCAGUUUCUUCG [theeternabot_sameState_KL_Theo_A_16] | 428 nM | 368 nM | 464 nM | 416 nM | 345 nM |
| UGCAUGCUUAGAGUGAUGUUCUAAGAUGAUACCAGUGCUUUUUUGCACCCUUGGCAGCGUCUGAUUGCAUGCACGUCGAAAGACG | 288 nM | 287 nM | 279 nM | 266 nM | 289 nM |
| UGCCCGCGCGAAGGAUAUGAGAGCUUGUCUGUCCAGUGAUGUUGGAGGUUGGUGAUUUGCUAGGCGUCAGAAGGUCGAGCUUAUA [theeternabot_sameState_KL_FMN_B_14] | 192 nM | 94.4 nM | 153 nM | 150 nM | 133 nM |
| UGCCGGAAGGCGAGCGCUCCCACUCCGGAAGGAGCGCCCGUAAGGGCAGGUAGGUCGCCGGAGUGAUGUUCCGGUGGAGGGCUCG [#2 Exclusion - Arginine A Attempt #22 (Inspired by Omei)] | 203 nM | 128 nM | 193 nM | 185 nM | 244 nM |
| UGGACAUGACUCGAUAAGAGUCAAUGAGAUACCAGUGACGAAAGUCACCCUUGGCAGCUCAACUGCCAGUGAUGUUGGUAGUCCU [#SwitchBubble #StaticStem] | 739 nM | 424 nM | 742 nM | 793 nM | 566 nM |
| UGGACCGCCUGAGGAUAUAGGGACGAGUGAUGUUCGUGGACCAGAGCCAGUGAUGUUGGGUUAUUUCUAGAAGGCGGGCGAACUU [Exclusion FMN B GF11] | 120 nM | 167 nM | 188 nM | 154 nM | 146 nM |
| UGGACCUGACUCGAUAAGAGUCAAUGAGAUACCAGUGACGAAAGUCACCCUUGGCAGCUCCUGCCAGUGAUGUUGGUAAGGUCCU [#SwitchBubble 4 #StaticStem] | 416 nM | 252 nM | 437 nM | 575 nM | 299 nM |
| UGGAGUUGACGAAAAGUCAACUCCUGAGAUACCAGUGACGAAAGUCACCCUUGGCAGCUCACUGCCAGUGAUGUUGGAAAAUAAA [#OpenEnded 1] | 527 nM | 295 nM | 238 nM | 204 nM | 387 nM |
| UGGAGUUGACGAAAAGUCAACUCCUGAGAUACCAGUGACGAAAGUCACCCUUGGCAGCUCACUGGCAGUGAUGUUGCUAAAUAAA [KL-SSTheo-A2] | 57.3 nM | 51.4 nM | 122 nM | 63.5 nM | 32.6 nM |
| UGGAGUUGACGAAAAGUCAACUCCUGAGAUACCAGUGACGAAAGUCACCCUUGGCAGCUCACUGGCAGUGAUGUUGCUAUAUAAA [KL-SSTheo-A3] | 85.5 nM | 68.9 nM | 95.3 nM | 211 nM | 101 nM |
| UGGAGUUGACGAAAAGUCAACUCCUGAGAUCGAGGACCGGUACGGCCGCCACUCGAGCUAACUGCGAGUGAUGUUCGAAAAUAAA [#OpenEnded 1 - Direct theophylline transfer] | 191 nM | 313 nM | 235 nM | 393 nM | 97.1 nM |
| UGGAUAUAGUGAUGUUAUAUAGAGAUGGAUACCAGCUAAGAGAAUGGCCCUUGGCAGCCGAAAGAAGUAUCAUUAGAGAAGAAUG [ExTheophyl.Ag] | 261 nM | 249 nM | 259 nM | 276 nM | 214 nM |
| UGGAUAUAGUUUAGUCUGGUGAGGUCAGAUACCAGACUAGCGAUAGUCCCUUGGCAGCUGAUUAUGAUUGAGUGAUGUUCAAUCG [Theo A Ex t9] | 187 nM | 151 nM | 170 nM | 157 nM | 157 nM |
| UGGGAUGUUAAAGGAUAUAGCAGAUGAUACAAGAAAGUGAGUGAUGUUUAUGUAGAUGAUGAUAUGUUAGAAGGUUAACAAAACG [abcdefghijk] | 625 nM | 595 nM | 754 nM | 715 nM | 544 nM |
| UGGUUCAAUACGGCCGCCACUGGUGAGUGAUGUUUACCGUCUAUAUCAUGUGUCGAGAGCGCUAUCAGGACCGGGUAGGGACCGU [theeternabot_exclusion_KL_Trp_B_42] | 673 nM | 396 nM | 721 nM | 837 nM | 458 nM |
| UGUAAUGGCUGAGCAGCCGUGGUACGAGAUACCAGUGAUUUCGAUCACCCUUGGCAGCUCGGCGUGAGUGAUGUUCACGCUACAC [Theo A SS t12] | 201 nM | 199 nM | 203 nM | 207 nM | 199 nM |
| UGUACCGAGUCAGGAUAUGAACGACUGACAAAAGUCGGUCGAAUAUCCAGUGAUGUUGGAAAUAAAUCAGAAGGGACUUGGUACU [FmnBS 15 #SwitchBubble #StaticStem] | 130 nM | 805 nM | 974 nM | 840 nM | 726 nM |
| UGUACCGAGUCAGGAUAUGUCGUCGAAAGACGAAAUGGAGUGAUGUUCCUUAAACUGCGAAAGCAGACAGAAGGGAUUUGGUACU [FmnBS 29 U77] | 207 nM | 654 nM | 739 nM | 738 nM | 717 nM |
| UGUACUAUUGUGAGUGAUGUUCACUUCGAUACCAGCAGAGCGAUCUGCCCUUGGCAGCGAGUUAACUGCCGAAAGGCAAGGAUUA [Theo B SS t9] | 535 nM | 528 nM | 546 nM | 546 nM | 378 nM |

| Sequence | apparent KD of K4 kissing-loop reporter (input ligand: FMN 200 uM) | apparent KD of K4 kissing-loop reporter (input ligand: arginine 13.2 mM) | apparent KD of K4 kissing-loop reporter (input ligand: none) | apparent KD of K4 kissing-loop reporter [1] | apparent KD of K4 kissing-loop reporter [2] |
| --- | --- | --- | --- | --- | --- |
| UGUAUGUGAUUUGAUACCAGACCAGCUGGUGGAUCACGAGUGAUGUUCGUGUUGGUUUGGGUCCCUUGGCAGCAAAUCGCAUACU [KL-SSTheoB13] | 218 nM | 151 nM | 180 nM | 131 nM | 166 nM |
| UGUAUUUCGGCGGCCGCCACUGACCAUAGCCUUCGAUGGCCAGUGAUGUUGGCCUCUGGCUCUAACAGGACCGGGCCGAAUUGCG [Usvediin] | 303 nM | 165 nM | 190 nM | 168 nM | 132 nM |
| UGUCAUGGAAACAUGAACGUUGAAAUAAAUCGAGGACCGGUACGGCCGCCACUCGUAUAGCGGUCAGUGAUGUUGACUGUAAUAA [KL-SSTryp-A form2 sub9] | 94.9 nM | 112 nM | 110 nM | 132 nM | 98.7 nM |
| UGUCAUGGAAACAUGACCGUUAAAAUAAAUCGAGGACCGGUACGGCCGCCACUCGUAUAGCGGUCAGUGAUGUUGACUGUAGUAC [KL-SSTryp-A form2 sub12 #dotplot2>1] | 419 nM | 428 nM | 491 nM | 475 nM | 546 nM |
| UGUCAUUGGUCUGAUACCAGUACCCUUGGCAGCCAAGGAGUGAUGUUCCGAGGAUACCAGUGCCCUUGGCAGCAGACCGAUGACU [TheoBS 27 #DoubleAptamer #SwitchBubble] | 375 nM | 308 nM | 354 nM | 176 nM | 350 nM |
| UGUCAUUGGUCUGAUACCAGUUGAUAAACUGGAGUGAUGUUCCUCGACGAAUACGUCGACAACCCUUGGCAGCAGACCGAUGACU [TheoBS 14 #SwitchBubble 13 #StaticStem] | 683 nM | 627 nM | 713 nM | 354 nM | 607 nM |
| UGUGAUGUGUAGUGUGAUGUUUUGAAGGAUACCAGAGUGUUGUUAUUCCCUUGGCAGCUUGAGUGAUGUUUGAUGUUGUUGUUGU [aawemullin] | 324 nM | 179 nM | 260 nM | 229 nM | 224 nM |
| UGUGAUGUGUAGUGUUAUGUUUUGCGGGAUACCAGAGUCUUUUUAUUCCCUUGGCAGCUUGAGUGAUGUUUGAUGCUGUUGUUGU [pwwamullin] | 485 nM | 349 nM | 461 nM | 463 nM | 339 nM |
| UGUGUUUACCUGACUCAGUGAUGUUGAGAAGGAGCGUGAGAAGGCACAGGUAGGUCGCUCAACCUAAAUUCAGGUGAGCACUAAA | 134 nM | 188 nM | 173 nM | 193 nM | 142 nM |
| UGUGUUUACCUGACUCAGUGAUGUUGAGAAGGAGCGUGCUAAUGCACAGGUAGGUCGCUCAACCUAAAUUCAGGUGAGCACUAAA | 587 nM | 250 nM | 560 nM | 271 nM | 478 nM |
| UGUGUUUACCUGACUCAGUGAUGUUGAGAAGGAGCGUUCGAAAGAACAGGUAGGUCGCUCAACCUAAAUUCAGGUGAGCACUAAA | 264 nM | 223 nM | 376 nM | 466 nM | 322 nM |
| UGUUAUGUAUCAGGAUAUUAGUGUUGUUUGUUUAUGUUAGUGAUGUUGAUAUUUGUUUUAUGUAUUUAAGAAGGGAUUGAGAUGU [kkplmullin] | 369 nM | 339 nM | 310 nM | 359 nM | 258 nM |
| UUAGAGAUCUCAGGAUAUCAGUGAUGUUGGUUGCCAGAUCUGAGAUAGAAUUCUAUCUCAGAUCAAUGAGAAGGGAGAUCUCAUU [AK4 Exc FMN B] | 501 nM | 313 nM | 352 nM | 317 nM | 282 nM |
| UUAGAUCAAAGAUCAGUCUUAUGGAGGGAACGAGGACCGGUACGGCCGCCACUCGAGUGAUGUUCGAGAACCCUCGUGACAAAUU [AK4 EXC Tryptophan A] | 196 nM | 146 nM | 189 nM | 164 nM | 297 nM |
| UUAGGAGUGGAAGGAUAUCCUGGUGUGGGUGGUGUUAGUGAUGUUGGUGGUGCAGUGAUGUUGCGCGGAGAAGGUCCGGUGUUGA [BDazzled - #4 - Exc. FMN B] | 471 nM | 384 nM | 434 nM | 554 nM | 358 nM |
| UUAGUCUAGAGAAGGAGCGAGUGAUGUUUGCUAAGCUAUAUAAUAAAAUAUAGCAAAUUUACUCAGGUAGGUCGCUCUAGACAUU [AK3 Exc Arginine B] | 153 nM | 122 nM | 98 nM | 149 nM | 74.2 nM |
| UUAGUCUAGAGAAGGAGCGCAGUGAUGUUGCGGUAUGUGAAAAUAUGUAUAUAAUAAUAAAUGCAGGUAGGUCGCUCUAGACAUU [AK2 Exc Arginine B] | 68.4 nM | 89.7 nM | 64.9 nM | 85.7 nM | 54.3 nM |
| UUAUAAUUCAGUGAUGUUGAAAAUAUAACAGAGGAUAUGCGUUUAAGCAGAAGGCUGAAAUACUAUACUUUAAUCUAUUAAAUUU [JR_SSFMNA_Sub019] | 232 nM | 377 nM | 313 nM | 332 nM | 212 nM |
| UUAUAUACGAGUGAUGUUCGUUAUUUAUCAGAGGAUAUGCUUAAAUGCAGAAGGCUGUAUUUCUAUUUGAUAUUAAAUUUUAUAA [JR_Nu3_ExcFMNA_Sub026] | 90.8 nM | 89.8 nM | 66.8 nM | 86.1 nM | 57.3 nM |
| UUAUUAAUCACAGAUACCAGUCCAGAAUGAAUACUAUAGUGAUGUUAUAAUAAAGGGAAGGACCCUUGGCAGCUGUAAUAUAUUU [AstrosSsTheB#2] | 525 nM | 370 nM | 499 nM | 354 nM | 320 nM |
| UUCGUAGUAGGAAACUAUUACGAAAAGGAAGGAGCGGCGAAGAAGCCAGGUAGGUCGCCUAUUGACAGUGAUGUUGUUAUGUAGA [#9] | 172 nM | 341 nM | 241 nM | 360 nM | 142 nM |
